Legend:
[1] = target: Venezuelan equine encephalitis virus (VEEV) virus-like particles (Venezuelan equine encephalitis virus, strain TC-83) (UniProt P09592); assay: cryo-EM structure
[2] = target: Venezuelan equine encephalitis virus (VEEV) virus-like particles (Venezuelan equine encephalitis virus, strain TC-83) (UniProt P09592); assay: SPR; Biacore T200; […]; 30 µl/min, 25 °C, HBS-P plus 1 mM CaCl2; global 1:1 fit; […]

LDLRAD3(D1), cleaved monomeric ectodomain of mouse low-density lipoprotein receptor class A domain-c, sequence (A2AR95 18-70): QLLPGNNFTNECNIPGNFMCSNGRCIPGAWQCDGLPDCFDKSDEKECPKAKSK
LDLRAD3(D1+D2), cleaved monomeric ectodomain of mouse LDLRAD3, domains 1 and 2, sequence (A2AR95 18-112): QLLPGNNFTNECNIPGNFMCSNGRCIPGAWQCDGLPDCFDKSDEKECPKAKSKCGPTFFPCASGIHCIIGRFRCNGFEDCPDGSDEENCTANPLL

Substance: LDLRAD3(D1), cleaved monomeric ectodomain of mouse low-density lipoprotein receptor class A domain-c (from UniProt A2AR95 18-70) (domain or fragment)
- stoichiometry N (molecules of LDLRAD3(D1) per VLP) [1]: 240

Substance: LDLRAD3(D1+D2), cleaved monomeric ectodomain of mouse LDLRAD3, domains 1 and 2 (from UniProt A2AR95 18-112) (domain or fragment)
- Kd [2]: 50 nM

Reference: PMC8550936
